{"source": "patent US20220332804A1", "about": "(CSL INNOVATION, published 2022)", "binders": {"B1": {"name": "RF16-226 (antibody, human IgG4 S228P, lambda)", "heavy": "not shown", "light": "SYELTQPPSVSVSPGQTARITCSGDALTSKYVAWYQQKSGLAPLLVIYEDTRRPSGIPAKFSGSSSGSVATLTISGAHGDDEADYYCYSTDASGHQRVFGGGTKLTVLSQPKAAPSVTLFPPSSEELQANKATLVCLISDFYPGAVTVAWKADGSPVKAGVETTKPSKQSNNKYAASSYLSLTPEQWKSHRSYSCQVTHEGSTVEKTVAPTECS", "notes": "pH-dependent anti-C2 antibody from a phage display library; also called WT"}}, "assay_in_all_cases": "SPR, antibody captured, C2 as analyte;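 note: biacore SPR at 37 °C, anti-C2 mAbs captured via goat anti-human IgG on CM5 chips, double-referenced sensorgrams fit to a 1:1 kinetic or steady-state model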", "key": {"[1]": {"molecular_target": "T1, human C2 F270A (human, UniProt P06681 21-752)", "T1 sequence": "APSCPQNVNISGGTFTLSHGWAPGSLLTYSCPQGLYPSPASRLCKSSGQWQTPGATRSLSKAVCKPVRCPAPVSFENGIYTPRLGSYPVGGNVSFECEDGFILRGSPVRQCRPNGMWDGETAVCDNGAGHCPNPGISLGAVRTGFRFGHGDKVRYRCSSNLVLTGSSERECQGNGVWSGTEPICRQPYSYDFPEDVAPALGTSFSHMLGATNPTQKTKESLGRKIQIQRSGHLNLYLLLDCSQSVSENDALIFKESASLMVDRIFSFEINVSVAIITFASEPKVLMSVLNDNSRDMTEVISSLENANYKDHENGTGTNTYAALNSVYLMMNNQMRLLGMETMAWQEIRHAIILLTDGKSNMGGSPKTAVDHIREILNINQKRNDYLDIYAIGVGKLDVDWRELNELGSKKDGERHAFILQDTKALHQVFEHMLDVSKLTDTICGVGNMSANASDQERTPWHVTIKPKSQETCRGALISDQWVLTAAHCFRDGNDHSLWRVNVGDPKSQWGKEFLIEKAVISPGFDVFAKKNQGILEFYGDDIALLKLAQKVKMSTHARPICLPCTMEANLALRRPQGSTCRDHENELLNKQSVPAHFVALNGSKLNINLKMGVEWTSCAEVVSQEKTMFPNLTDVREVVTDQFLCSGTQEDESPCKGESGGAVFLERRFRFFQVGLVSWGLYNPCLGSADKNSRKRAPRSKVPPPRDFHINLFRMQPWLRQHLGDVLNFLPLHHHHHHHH"}, "[2]": {"molecular_target": "T2, human C2 V418A (human, UniProt P06681 21-752)", "T2 sequence": "T1 sequence with A250F, V398A"}, "[3]": {"molecular_target": "T3, human C2 R688A (human, UniProt P06681 21-752)", "T3 sequence": "T1 sequence with A250F, R668A"}, "[4]": {"molecular_target": "T4, human C2 Y328A (human, UniProt P06681 21-752)", "T4 sequence": "T1 sequence with A250F, Y308A"}}, "note": "Where a chain is given by its changes, count along the chain named."}
{"binder": "B1", "values": [{"measurement": "Kd", "setting": "[1]", "result": 96.8, "unit": "nM"}, {"measurement": "Kd", "setting": "[2]", "result": 8, "unit": "nM"}, {"measurement": "Kd", "setting": "[3]", "result": 25.3, "unit": "nM"}, {"measurement": "Kd", "setting": "[4]", "result": 78.4, "unit": "nM"}]}
